# According to the supplement of paper PMC9112550, “Optimization of the antimicrobial peptide Bac7 by deep mutational scanning” (BMC Biology, 2022):
# System: Escherichia coli TOP10
# Assay: shrunken log2 fold change of peptide-encoding DNA abundance (4.5 h post-induction vs induction); higher = less antimicrobial activity (less host growth inhibition)
# Conditions: time post-induction: 4.5 h; library: site-saturation at positions 5, 18, 19, 20
# 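Also: peptides expressed intracellularly from a pBAD plasmid library in pooled LB shake-flask culture, induced with 0.3% L-arabinose, DNA abundance read by NGS, three biological replicates, DESeq2 with apeglm shrinkage.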
row,Sequence,shrunken log2 fold change
1,RRIRLRPPRLPRPRPRPSHVPRP,-0.0453
2,RRIRGRPPRLPRPRPRPPPPPRP,1.54
3,RRIRVRPPRLPRPRPRPVTKPRP,0.261
4,RRIRKRPPRLPRPRPRPRNYPRP,0.374
5,RRIRERPPRLPRPRPRPAGSPRP,-0.202
6,RRIRNRPPRLPRPRPRPIIWPRP,-0.139
7,RRIRLRPPRLPRPRPRPFLPPRP,-0.171
8,RRIRSRPPRLPRPRPRPAMYPRP,-0.184
9,RRIRVRPPRLPRPRPRPNELPRP,-0.00739
10,RRIRVRPPRLPRPRPRPMHIPRP,-0.231
11,RRIRRRPPRLPRPRPRPDEGPRP,-0.00319
12,RRIRQRPPRLPRPRPRPWHFPRP,-0.0375
13,RRIRRRPPRLPRPRPRPKEGPRP,-0.000243
14,RRIRVRPPRLPRPRPRPWCAPRP,-0.0313
15,RRIRNRPPRLPRPRPRPEPWPRP,0.0625
16,RRIRFRPPRLPRPRPRPNETPRP,-0.0424
17,RRIRDRPPRLPRPRPRPCPAPRP,-0.156
18,RRIRQRPPRLPRPRPRPPNVPRP,-0.0755
19,RRIRFRPPRLPRPRPRPNMEPRP,-0.129
20,RRIRKRPPRLPRPRPRPPRSPRP,2.69
21,RRIRERPPRLPRPRPRPQTLPRP,-0.324
22,RRIRLRPPRLPRPRPRPQGPPRP,-0.191
23,RRIRFRPPRLPRPRPRPTVHPRP,-0.238
24,RRIRMRPPRLPRPRPRPNMVPRP,-0.147
25,RRIRRRPPRLPRPRPRPEWFPRP,-0.159

row,Sequence,shrunken log2 fold change
1,RRIRHRPPRLPRPRPRPWSVPRP,-0.125
2,RRIRVRPPRLPRPRPRPKVYPRP,-0.433
3,RRIRARPPRLPRPRPRPGTAPRP,0.493
4,RRIRDRPPRLPRPRPRPASFPRP,0.136
5,RRIRTRPPRLPRPRPRPWLKPRP,0.18
6,RRIRMRPPRLPRPRPRPRSSPRP,0.923
7,RRIRIRPPRLPRPRPRPDTWPRP,-0.239
8,RRIRERPPRLPRPRPRPVSYPRP,0.0843
9,RRIRCRPPRLPRPRPRPLWLPRP,-0.0572
10,RRIRHRPPRLPRPRPRPCVHPRP,-0.00151
11,RRIRNRPPRLPRPRPRPCNMPRP,-0.0735
12,RRIRQRPPRLPRPRPRPGRIPRP,-0.123
13,RRIRRRPPRLPRPRPRPYTWPRP,-0.299
14,RRIRVRPPRLPRPRPRPIGCPRP,-0.0514
15,RRIRNRPPRLPRPRPRPRWEPRP,0.291
16,RRIRRRPPRLPRPRPRPDCKPRP,-0.176
17,RRIRTRPPRLPRPRPRPCLTPRP,-0.319
18,RRIRHRPPRLPRPRPRPVRPPRP,0.365
19,RRIRTRPPRLPRPRPRPKGRPRP,-0.219
20,RRIRVRPPRLPRPRPRPHFPPRP,0.046
21,RRIRARPPRLPRPRPRPIEHPRP,0.126
22,RRIRIRPPRLPRPRPRPFCHPRP,-0.302
23,RRIRIRPPRLPRPRPRPQMMPRP,-0.622
24,RRIRERPPRLPRPRPRPNAAPRP,0.163
25,RRIRRRPPRLPRPRPRPQDCPRP,-0.151

row,Sequence,shrunken log2 fold change
1,RRIRQRPPRLPRPRPRPYNYPRP,-1.44
2,RRIRPRPPRLPRPRPRPSEWPRP,0.0522
3,RRIRWRPPRLPRPRPRPTIPPRP,-0.109
4,RRIRYRPPRLPRPRPRPPDNPRP,-0.185
5,RRIRWRPPRLPRPRPRPGTWPRP,0.0354
6,RRIRARPPRLPRPRPRPMRWPRP,0.618
7,RRIRWRPPRLPRPRPRPWLCPRP,-0.0206
8,RRIRNRPPRLPRPRPRPYSNPRP,-0.155
9,RRIRERPPRLPRPRPRPDFMPRP,0.0144
10,RRIRDRPPRLPRPRPRPVNPPRP,0.342
11,RRIRNRPPRLPRPRPRPCRDPRP,-0.0123
12,RRIRQRPPRLPRPRPRPSAGPRP,0.0717
13,RRIRERPPRLPRPRPRPRERPRP,0.389
14,RRIRIRPPRLPRPRPRPWYAPRP,-0.644
15,RRIRPRPPRLPRPRPRPEMMPRP,0.00381
16,RRIRARPPRLPRPRPRPIVSPRP,0.0293
17,RRIRMRPPRLPRPRPRPYPMPRP,-0.126
18,RRIRFRPPRLPRPRPRPITTPRP,-0.198
19,RRIRPRPPRLPRPRPRPVRHPRP,0.119
20,RRIRPRPPRLPRPRPRPAYEPRP,0.0834
21,RRIRLRPPRLPRPRPRPYREPRP,-0.134
22,RRIRKRPPRLPRPRPRPQSNPRP,0.0971
23,RRIRERPPRLPRPRPRPLSNPRP,0.0169
24,RRIRERPPRLPRPRPRPAPTPRP,0.199
25,RRIRWRPPRLPRPRPRPSANPRP,0.559

row,Sequence,shrunken log2 fold change
1,RRIRGRPPRLPRPRPRPKRNPRP,0.624
2,RRIRGRPPRLPRPRPRPSQKPRP,0.0248
3,RRIRMRPPRLPRPRPRPDSLPRP,-0.0169
4,RRIRHRPPRLPRPRPRPWADPRP,-0.36
5,RRIRQRPPRLPRPRPRPAWIPRP,-0.0396
6,RRIRSRPPRLPRPRPRPNHQPRP,-0.139
7,RRIRIRPPRLPRPRPRPSKGPRP,-0.142
8,RRIRVRPPRLPRPRPRPMMQPRP,0.0134
9,RRIRERPPRLPRPRPRPLDYPRP,-0.163
10,RRIRLRPPRLPRPRPRPKSCPRP,0.0755
11,RRIRSRPPRLPRPRPRPNNEPRP,-0.631
12,RRIRVRPPRLPRPRPRPYQGPRP,-0.236
13,RRIRERPPRLPRPRPRPCMRPRP,-0.0898
14,RRIRPRPPRLPRPRPRPIREPRP,0.31
15,RRIRLRPPRLPRPRPRPCVAPRP,0.238
16,RRIRPRPPRLPRPRPRPIFNPRP,-0.238
17,RRIRKRPPRLPRPRPRPPWWPRP,0.777
18,RRIRERPPRLPRPRPRPRPRPRP,0.723
19,RRIRNRPPRLPRPRPRPMTCPRP,-0.0075
20,RRIRGRPPRLPRPRPRPMLKPRP,0.575
21,RRIRPRPPRLPRPRPRPEVHPRP,0.551
22,RRIRYRPPRLPRPRPRPCPGPRP,-0.0926
23,RRIRIRPPRLPRPRPRPTWAPRP,0.0207
24,RRIRSRPPRLPRPRPRPMETPRP,0.585
25,RRIRGRPPRLPRPRPRPSDEPRP,0.178

row,Sequence,shrunken log2 fold change
1,RRIRWRPPRLPRPRPRPYIIPRP,-1.11
2,RRIRLRPPRLPRPRPRPRGCPRP,0.246
3,RRIRTRPPRLPRPRPRPQAPPRP,-0.1
4,RRIRQRPPRLPRPRPRPALQPRP,0.145
5,RRIRDRPPRLPRPRPRPEFKPRP,-0.0319
6,RRIRYRPPRLPRPRPRPKKGPRP,-0.444
7,RRIRKRPPRLPRPRPRPGGFPRP,0.223
8,RRIRPRPPRLPRPRPRPRQHPRP,0.182
9,RRIRMRPPRLPRPRPRPCITPRP,0.156
10,RRIRTRPPRLPRPRPRPYNTPRP,-0.737
11,RRIRSRPPRLPRPRPRPAWEPRP,0.499
12,RRIRSRPPRLPRPRPRPKYDPRP,-0.0717
13,RRIRFRPPRLPRPRPRPDHVPRP,0.0266
14,RRIRPRPPRLPRPRPRPYYGPRP,-0.271
15,RRIRPRPPRLPRPRPRPDPDPRP,-0.0832
16,RRIRNRPPRLPRPRPRPYARPRP,-0.0034
17,RRIRSRPPRLPRPRPRPASWPRP,0.363
18,RRIRIRPPRLPRPRPRPFKCPRP,0.000802
19,RRIRFRPPRLPRPRPRPCLNPRP,-0.244
20,RRIRPRPPRLPRPRPRPPISPRP,-0.0159
21,RRIRTRPPRLPRPRPRPYEVPRP,-0.0168
22,RRIRDRPPRLPRPRPRPWHRPRP,-0.017
23,RRIRNRPPRLPRPRPRPQVYPRP,-0.0412
24,RRIRKRPPRLPRPRPRPAQTPRP,0.246
25,RRIRTRPPRLPRPRPRPDHQPRP,-0.0261
